From patent publication US20090053198A1 (published 2009)

Target: T1, human E-selectin on CHO-E cells (human, UniProt P16581 22-610)
T1 construct: whole, on cells
T1 sequence (looked up): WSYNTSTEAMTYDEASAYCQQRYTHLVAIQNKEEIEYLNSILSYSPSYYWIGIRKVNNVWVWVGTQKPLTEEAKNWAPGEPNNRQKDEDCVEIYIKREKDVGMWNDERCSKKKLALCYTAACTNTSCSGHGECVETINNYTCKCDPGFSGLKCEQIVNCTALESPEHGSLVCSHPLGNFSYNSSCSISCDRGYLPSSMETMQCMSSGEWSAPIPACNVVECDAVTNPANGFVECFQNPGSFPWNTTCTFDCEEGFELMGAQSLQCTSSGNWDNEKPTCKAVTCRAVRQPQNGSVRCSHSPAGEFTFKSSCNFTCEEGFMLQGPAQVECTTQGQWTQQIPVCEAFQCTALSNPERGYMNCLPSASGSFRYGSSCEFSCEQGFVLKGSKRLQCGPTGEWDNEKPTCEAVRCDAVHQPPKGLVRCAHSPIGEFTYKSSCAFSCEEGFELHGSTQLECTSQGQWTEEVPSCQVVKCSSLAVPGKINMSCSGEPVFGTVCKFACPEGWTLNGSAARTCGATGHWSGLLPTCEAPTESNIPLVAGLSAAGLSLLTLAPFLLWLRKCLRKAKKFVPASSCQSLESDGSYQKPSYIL
Test: blot rolling assay: CHO-E perfused at 0.6 dyne/cm^2 over blotted ML-M membrane glycoproteins (˜130 kDa band)
Text: Blot rolling assays: The blot rolling assay has been described previously²⁹. CHO-E were washed in PBS, and resuspended to 2×10⁶ cells/ml in assay buffer/10% glycerol. […] These blots were then placed in the parallel plate flow chamber, and CHO-E were perfused into the chamber at a shear stress of 0.6 dyne/cm²; an adjustment in the volumetric flow rate was made to account for the increase in viscosity due to the presence of 10% glycerol in the assay buffer. Molecular weight standards (SeeBlue® Plus2 prestained molecular weight standard; Invitrogen Corporation; Carlsbad, Calif.) were co-electrophoresed on adjacent lanes and served as a guide to aid placement of the flow chamber over the stained bands of interest. The number of tethering and rolling CHO-E was tabulated as function of the molecular weight region and compiled into an adhesion histogram. Negative controls were prepared by adding 10 mM EDTA to the assay buffer to chelate Ca²⁺ required for binding or treating CHO-E with anti E-selectin mAb, 68-5411, at 4° C. for 15 min. prior to use in adhesion assays.
For these experiments, we could not assess binding interactions over the entire lane due to the length restriction of the flow chamber; because the differences in HECA-reactivity in proteins from ML and NL clustered within mobilities encompassing 30 kDa-170 kDa, we set the field view over this range. […]

- binding result: binds
B1: PSGL-1 (P-selectin glycoprotein ligand-1) of G-CSF mobilized leukocytes (ligand, human, UniProt Q14242 42-412, looked up)
chain: QATEYEYLDYDFLPETEPPEMLRNSTDTTPLTGPGTPESTTVEPAARRSTGLDAGGAVTELTTELANMGNLSTDSAAMEIQTTQPAATEAQTTQPVPTEAQTTPLAATEAQTTRLTATEAQTTPLAATEAQTTPPAATEAQTTQPTGLEAQTTAPAAMEAQTTAPAAMEAQTTPPAAMEAQTTQTTAMEAQTTAPEATEAQTTQPTATEAQTTPLAAMEALSTEPSATEALSMEPTTKRGLFIPFSVSSVTHKGIPMAASNLSVNYPVGAPDHISVKQCLLAILILALVATIFFVCTVVLAVRLSRKGHMYPVRNYSPTEMVCISSLLPDGGEGPSATANGGLSKAKSPGLTPEPREDREGDDLTLHSFLP
modifications: sialofucosylated (HECA-452-reactive) glycans; positions not given
notes: Native glycoprotein from donor cells; seen as ˜220 kDa dimer and ˜130 kDa monomer on blots; also called ˜220 kDa band (dimer); ˜130 kDa band (monomer)
